According to patent US11020478B2, “Methods for modulating angiogenesis of cancers refractory to anti-VEGF treatment” (INIS BIOTECH LLC, priority 2013, dated 2021):

What was measured:
[1] = system: HUVEC migration; test: EC migration assay (HUVEC); assay type: cell-based, human
Experimental: (§1) Cells were incubated at 37° C. for periods ranging from 0 to 24 h and were visualized by phase-contrast microscopy. Capillary-like tubular structures were scored by counting the number of tubules (closed areas) per well in a phase-contrast microscope (Nikon E-100). For migration assays, ECs (4×10^4/well) transfected or not with specific siRNA were resuspended in M199 medium supplemented with 1% FCS. Cells were placed into the top chamber of the insert while the bottom well was filled with Gal1 or VEGF-A in the absence or presence of the above mentioned stimuli. After 24 hours, inserts were stained with crystal violet (Sigma) and analyzed in an inverted microscope. For each filter, 4 images were obtained and cells were counted with ImageJ software v1.46r (NIH). […] After 24 hours, cells were incubated in the presence of 0.8 μCi [^3H]-thymidine (NEN Dupont). Cells were then harvested and radioactivity was measured in a 1414 Liquid Scintillation Counter (Perkin Elmer). Tumor-associated ECs were identified by flow cytometry using Alexa Fluor 647-conjugated anti-CD34 (RAM34; eBioscience) and FITC-conjugated anti-CD45 (J33; Immunotech). Microvessel density (MVD) was determined by counting the number of CD31^+ microvessels present in 10 mm^2. Ten random 400× fields were counted.

[2] = system: B16-F0 melanoma; test: In vivo tumor model, B16-F0; set-up: species or system mouse
Experimental: (§2) Mice were anesthetized and intracardiacally perfused with PBS and 4% (w/v) paraformaldehyde and tissues were embedded in OCT. To visualize the vasculature, mice were intravenously injected with FITC-conjugated Griffonia simplicifolia Lectin-1 (GLS-1B4; Vector) prior to heart perfusion and fixation. Pericyte maturation was assessed using Ab specific for α-SMA (1A4; Dako), desmin (D33; Dako), PDGFR-β (APB5; Biolegend) and RGS5 (HPA001821; Prestige Sigma). The fraction of pericyte coverage was calculated as the ratio of α-SMA area to the FITC-GLS-1B4 or CD31-stained area using a specific anti-CD31 Ab (Mec13.3; BD Biosciences). Hypoxia was detected after injection of pimonidazole hydrochloride for 30 min following immunostaining with Hypoxyprobe-1 plus kit (Natural Pharmacia). Tumor-infiltrating cells were analyzed using anti-CD8 (H35-17.2; e-Bioscience) and anti-F4/80 (BM8; eBioscience) mAb.
(§3) Wild-type or Gal1 knockdown B16-F0, LLC1 and R1.1 (2.5 or 5×10^5 cells) were subcutaneously inoculated into 6- to 8-week old WT, Mgat5^−/−, St6gal1^−/− or Rag1^−/− B6 mice. CT26 (5×10^5) cells were injected into syngeneic BALB/c mice. When tumors reached 100 mm^3, mice were inoculated intraperitoneally with anti-VEGF (B20-4.1.1; 5 or 10 mg/kg), anti-Gal1 (F8.G7; 5, 10 or 15 mg/kg) or isotype control mAb twice weekly. Axitinib (30 mg/kg; Sigma) was administered every two days by oral gavage. Mice were sacrificed when tumors reached a volume greater than 2.5 cm^3. Two weeks after tumor inoculation, TDLN cells (5×10^5/well) were re-stimulated ex vivo for 72 hours with lysates of B16-F0 or LLC1 cells and analyzed for proliferation and cytokine production (as described in Rubinstein et al., Cancer Cell 5:3, 241-51 (2004)).

[3] = system: B16-F0 melanoma; test: In vivo tumor model, B16-F0; set-up: species or system mouse; settings: single administration of F8.G7 mAb, 10 mg/kg
[4] = system: TDLN cells; test: TDLN cell responses of tumor-bearing mice (ex vivo restimulation, ELISA, flow cytometry); assay type: in vivo, mouse
Experimental: (§4) Gal1 was determined using an in-house ELISA (according to the methods described in Croci et al., J. Exp. Med. 209:11, 1985-2000 (2012). The mouse IFN-γ (DY485), mouse IL-17 (DY421), mouse TGF-β1 (DY1679), mouse Gal3 (DY1179) and human VEGF-A (DY293B) ELISA sets were from R&D. The mouse IL-10 (555252) set was from BD Biosciences, the mouse bFGF (Ab100670) set was from Abcam, and the mouse Gal8 (SEA308Mu) set was from USCN Life Science. Optical densities were determined at 450-550 nm in a Multiskan MS microplate reader (Thermo Electron Corporation).
(§5) For intracellular cytokine staining, TDLN cells were made permeable with Perm2 solution (BD Biosciences) and were labeled with fluorescent-conjugated mAb anti-IFN-γ (XMG1.2; BD Biosciences), anti-IL-17 (TC11-18H10; BD Biosciences), anti-IL-10 (JESS-16E3; eBioscience), anti-CD8 (H35-17.2; eBioscience) and anti-CD4 (GK1.5; BD Biosciences). Cells were analyzed on a FACSCanto II flow cytometer (BD Biosciences). For adoptive transfer, splenic T cells (5×10^6) from tumor-bearing mice were labeled with CFSE (Molecular Probes) and injected through the tail vein into tumor-bearing recipient mice treated with F8.G7 mAb or isotype control. APC-fluorescent beads (7-10 μm; BD Biosciences) were injected as controls. CFSE^+ cells or APC^+ beads were analyzed after 24 h or 15 min respectively by flow cytometry in the tumor parenchyma and spleen.
as §2
Wild-type or Gal1 knockdown B16-F0, LLC1 and R1.1 (2.5 or 5×10^5 cells) were subcutaneously inoculated into 6- to 8-week old WT, Mgat5^−/−, St6gal1^−/− or Rag1^−/− B6 mice. CT26 (5×10^5) cells were injected into syngeneic BALB/c mice. […] Two weeks after tumor inoculation, TDLN cells (5×10^5/well) were re-stimulated ex vivo for 72 hours with lysates of B16-F0 or LLC1 cells and analyzed for proliferation and cytokine production (as described in Rubinstein et al., Cancer Cell 5:3, 241-51 (2004)).

[5] = system: HUVEC tube formation; test: Capillary-like tube formation on Matrigel (HUVEC); assay type: cell-based, human; settings: HUVEC
Experimental: as §1

[6] = system: B16-F0 tumor parenchyma; test: Adoptive transfer of CFSE-labeled T cells / fluorescent beads, influx to tumor and spleen; assay type: in vivo, mouse
Experimental: as §5

[7] = system: other members of the galectin family; settings: cited from earlier work
[8] = target: T1, Gal1 (Mus musculus, UniProt P16045); test: ELISA of Gal1 secretion by tumors inoculated in syngeneic mice; assay type: in vivo; settings: B16-F0, LLC1 and R1.1 tumors, day 16
T1 construct: from tissue; host or cells: B16-F0, LLC1 and R1.1 tumours grown in syngeneic mice
Experimental: as §4, §3

[9] = system: VEGFR2; test: Immunoblot of VEGFR2 phosphorylation in HUVEC; assay type: cell-based, human
Experimental: Cells were lysed and analyzed by the human […] RTK Signaling Antibody Array (Cell Signaling) following the manufacturer's directions. For co-immunoprecipitation, 500 μg lysates were incubated with 2 μg anti-VEGFR2 (55B11; Cell Signaling) Ab. The immunocomplexes were captured with protein G PLUS-Agarose (Santa Cruz) and processed for immunoblotting (according to methods described in Ilarregui et al., Nat. Immunol. 10, 981-99 (2009)). Blots were probed with anti-Erk1/2 (C14), anti-phospho-Erk1/2 (E4), anti-actin (I-19), anti-Gal3 (B2C10), anti-Gal4 (Q20), anti-Gal7 (H8) or anti-Gal8 (D18) Ab (all from Santa Cruz) or anti-Akt (9272), anti-phospho-Akt (9271 S), anti-VEGFR2 (55B11), anti-phospho-VEGFR2 (19A10) Ab (all from Cell Signaling) or a rabbit anti-Gal1 polyclonal IgG (1.5 μg/ml) (as described in Rubinstein et al., Cancer Cell 5:3, 241-51 (2004)).

[10] = system: LLC1 Lewis lung carcinoma; test: In vivo tumor model, LLC1; set-up: species or system mouse
Experimental: as §1, with “Tumor-associated ECs were identified by flow cytometry using Alexa Fluor 647-conjugated anti-CD34 (RAM34; eBioscience) and FITC-conjugated anti-CD45 (J33; Immunotech).” left out
Mice were anesthetized and intracardiacally perfused with PBS and 4% (w/v) paraformaldehyde and tissues were embedded in OCT. […] Pericyte maturation was assessed using Ab specific for α-SMA (1A4; Dako), desmin (D33; Dako), PDGFR-β (APB5; Biolegend) and RGS5 (HPA001821; Prestige Sigma). […]

[11] = system: R1.1 T-cell lymphoma; test: In vivo tumor model, R1.1; set-up: species or system mouse
Experimental: as §1, with “counted. […]” for “counted.”

[12] = F8.G7 10 mg/kg combined with anti-VEGF mAb, day 7
[13] = single administration of F8.G7 mAb, 10 mg/kg

T1 sequence (P16045 whole entry): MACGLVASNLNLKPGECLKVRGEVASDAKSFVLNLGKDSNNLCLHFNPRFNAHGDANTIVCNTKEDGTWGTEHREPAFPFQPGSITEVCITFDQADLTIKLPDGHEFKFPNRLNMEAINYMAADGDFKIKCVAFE

B1: F8.G7: mouse anti-Gal1 blocking (neutralizing) monoclonal antibody; hybridoma 8F4.F8.G7, ATCC deposit PTA-10535; vH SEQ ID NO: 6, vK SEQ ID NO: 11 (antibody, V domains shown)
VH: EVQLQQSVAEFVRPGASVRLSCTASGFNIKNTYIHWVRQRPEQGLEWIGKIDPANGNTKYVPEFQGKATMTADTSSNTVYLHLSSLTSEDTAIYYCVDGYYGWYFAVWGTGTTVTVSS
VL: QAVVTQESALTTSPGETVTLTCRSSTGAVTTSNYANWVQEKPDHLFTGLIGATNNRAPGVPARFSGSLIGDKAVLTITGAQTEDEAIYFCALWYRNHFIFGSGTKVTVL
modifications: Anti-human
EC migration induced by Gal1 [1]: specifically prevented
therapeutic benefit of anti-VEGF ([2]; F8.G7 10 mg/kg combined with anti-VEGF mAb): slightly enhanced
remodeling of tumor vasculature ([2]; days 4-5 post treatment): substantial remodeling of the vasculature
pericyte coverage of tumor vessels ([2]; days 4-5 post treatment, vs control mAb): greater coverage by pericytes
anti-tumor effect ([2]; immunodeficient B6.Rag1−/− mice): only a partial anti-tumor effect
concentrations at which active ([2]; in vivo tumor models): 5 to 10 mg/kg
tumor hypoxia (pimonidazole adducts) ([2]; mouse, in vivo): markedly alleviated
tumor growth at different doses ([2]; treated when tumors reached 100 mm^3): dose-dependent effect
Desmin expression in pericytes ([2]; vs control-treated tumors): no significant variations
PDGFR-β expression in pericytes ([2]; vs control-treated tumors): lower expression
RGS5 expression in pericytes ([2]; vs control-treated tumors): lower expression
α-SMA expression in pericytes ([2]; vs control-treated tumors): higher expression
tumor growth and vascularization [3]: sustained inhibition of tumor growth and vascularization
T-cell proliferation ([4]; mice bearing B16-F0 tumors): stimulated
tumor-specific IL-10 production ([4]; mice bearing B16-F0 tumors): blunted
immunological phenotype ([4]; mice inoculated with LLC1): confirmed
number of TDLN and tumor-infiltrating IFN-γ-producing CD8+ T cells ([4]; vs control-treated mice): dramatic increase
tube formation induced by Gal1 [5]: specifically prevented
T cells reaching tumor parenchyma ([6]; CFSE-labeled T cells, vs control isotype): greater number
number of CFSE+ T cells in spleens ([6]; vs control isotype): no differences
access of fluorescently-labeled beads to the tumor parenchyma ([6]; vs control-treated mice): increased access
binding to other members of the galectin family [7]: did not bind
amounts of secreted Gal1 [8]: dropped substantially
Gal1-induced VEGFR2 phosphorylation [9]: inhibited to levels comparable to those attained by MGAT5 silencing
anti-VEGF resistance (tumor growth inhibition and reduced vascularization) [10, 12]: successfully circumvented
tumor growth and vascularization [10, 13]: sustained inhibition of tumor growth and vascularization
anti-VEGF resistance (tumor growth inhibition and reduced vascularization) [11, 12]: successfully circumvented
tumor growth and vascularization [11, 13]: sustained inhibition of tumor growth and vascularization
